According to patent US11325966:

Tests used:
Test in all cases: cell-based or functional assay
92BR020 N136A (HIV-1) = target: 92BR020 N136A (HIV-1)
[1] = target: 92BR020 N136A + N156A + N301A (HIV-1)
92BR020 N301A (HIV-1) = target: 92BR020 N301A (HIV-1)
92BR020 N332A (HIV-1) = target: 92BR020 N332A (HIV-1)
92BR020 Q328A (HIV-1) = target: 92BR020 Q328A (HIV-1)
[2] = target: BG505 (T332N) N137A (HIV-1)
[3] = target: BG505 (T332N) N156A (HIV-1)
[4] = target: HIV-1 Env of pseudovirus 1012_11_TC21_3257 (HIV-1)
[5] = target: HIV-1 Env of pseudovirus 191821_E6_1 (HIV-1)
[6] = target: HIV-1 Env of pseudovirus 231965.c01 (HIV-1)
[7] = target: HIV-1 Env of pseudovirus 3103.v3.c10 (HIV-1)
[8] = target: HIV-1 Env of pseudovirus 6480.v4.c25 (HIV-1)
[9] = target: HIV-1 Env of pseudovirus 928-28 (HIV-1)
[10] = target: HIV-1 Env of pseudovirus A07412M1.vrc12 (HIV-1)
[11] = target: HIV-1 Env of pseudovirus BF1266.431a (HIV-1)
[12] = target: HIV-1 Env of pseudovirus BJOX010000.06.2 (HIV-1)
[13] = target: HIV-1 Env of pseudovirus BJOX025000.01.1 (HIV-1)
[14] = target: HIV-1 Env of pseudovirus BJOX028000.10.3 (HIV-1)
[15] = target: HIV-1 Env of pseudovirus CAAN5342.A2 (HIV-1)
[16] = target: HIV-1 Env of pseudovirus CAP210.2.00.E8 (HIV-1)
[17] = target: HIV-1 Env of pseudovirus CAP45.2.00.G3 (HIV-1)
[18] = target: HIV-1 Env of pseudovirus CNE5 (HIV-1)
[19] = target: HIV-1 Env of pseudovirus CNE58 (HIV-1)
[20] = target: HIV-1 Env of pseudovirus Ce0393_C3 (HIV-1)
[21] = target: HIV-1 Env of pseudovirus Ce2060_G9 (HIV-1)
[22] = target: HIV-1 Env of pseudovirus Du156.12 (HIV-1)
[23] = target: HIV-1 Env of pseudovirus Q23.17 (HIV-1)
[24] = target: HIV-1 Env of pseudovirus Q842.d12 (HIV-1)
[25] = target: HIV-1 Env of pseudovirus R1166.c01 (HIV-1)
[26] = target: HIV-1 Env of pseudovirus R2184.c04 (HIV-1)
[27] = target: HIV-1 Env of pseudovirus R3265.c06 (HIV-1)
[28] = target: HIV-1 Env of pseudovirus REJO4541.67 (HIV-1)
[29] = target: HIV-1 Env of pseudovirus THRO4156.18 (HIV-1)
[30] = target: HIV-1 Env of pseudovirus TRO.11 (HIV-1)
[31] = target: HIV-1 Env of pseudovirus X1193_c1 (HIV-1)
[32] = target: HIV-1 Env of pseudovirus X1632_S2_B10 (HIV-1)
[33] = target: HIV-1 Env of pseudovirus X2088_c9 (HIV-1)
[34] = target: HIV-1 Env of pseudovirus X2131_C1_B5 (HIV-1)
[35] = target: HIV-1 Env of pseudovirus ZM197M.PB7 (HIV-1)
JR-CSF D325A (HIV-1) = JR-CSF D325A (HIV-1) (UniProt P20871)
JR-CSF G324A (HIV-1) = JR-CSF G324A (HIV-1) (UniProt P20871)
JR-CSF N386A (HIV-1) = JR-CSF N386A (HIV-1) (UniProt P20871)
JR-CSF N392A (HIV-1) = JR-CSF N392A (HIV-1) (UniProt P20871)

Work on 354BG8 (antibody) yielded an IC50 in TZM-bl assay (92BR020 N136A (HIV-1)) of 0.005 µg/mL, an IC50 in TZM-bl assay [1] of 0.001 µg/mL and an IC50 in TZM-bl assay (92BR020 N301A (HIV-1)) of 0.009 µg/mL. The IC50 in TZM-bl assay (92BR020 N332A (HIV-1)) was greater than 50 µg/mL, the IC50 in TZM-bl assay (92BR020 Q328A (HIV-1)) was 0.018 µg/mL and the IC50 in TZM-bl assay [2] was 0.003 µg/mL. It also gave an IC50 in TZM-bl assay [3] of 0.008 µg/mL, an IC50 in TZM-bl assay [4] of 0.011 µg/mL and an IC80 in TZM-bl assay [4] of 0.047 µg/mL. The IC50 in TZM-bl assay [5] was greater than 10 µg/mL, the IC80 in TZM-bl assay [5] was greater than 10 µg/mL and the IC50 in TZM-bl assay [6] was greater than 10 µg/mL. It also gave an IC80 in TZM-bl assay [6] greater than 10 µg/mL, an IC50 in TZM-bl assay [7] of 0.024 µg/mL and an IC80 in TZM-bl assay [7] of 0.061 µg/mL. For the same substance, the IC50 in TZM-bl assay [8] was 0.006 µg/mL, the IC80 in TZM-bl assay [8] was 0.023 µg/mL and the IC50 in TZM-bl assay [9] was 0.616 µg/mL. For the same substance, the IC80 in TZM-bl assay [9] was 2.4 µg/mL, the IC50 in TZM-bl assay [10] was 0.011 µg/mL and the IC80 in TZM-bl assay [10] was 0.037 µg/mL. The IC50 in TZM-bl assay [11] was greater than 10 µg/mL, the IC80 in TZM-bl assay [11] was greater than 10 µg/mL and the IC50 in TZM-bl assay [12] was greater than 10 µg/mL. For the same substance, the IC80 in TZM-bl assay [12] was greater than 10 µg/mL, the IC50 in TZM-bl assay [13] was greater than 10 µg/mL and the IC80 in TZM-bl assay [13] was greater than 10 µg/mL. It also gave an IC50 in TZM-bl assay [14] greater than 10 µg/mL, an IC80 in TZM-bl assay [14] greater than 10 µg/mL and an IC50 in TZM-bl assay [15] of 0.005 µg/mL. The IC80 in TZM-bl assay [15] was 0.019 µg/mL, the IC50 in TZM-bl assay [16] was greater than 10 µg/mL and the IC80 in TZM-bl assay [16] was greater than 10 µg/mL. It also gave an IC50 in TZM-bl assay [17] greater than 10 µg/mL, an IC80 in TZM-bl assay [17] greater than 10 µg/mL and an IC50 in TZM-bl assay [18] greater than 10 µg/mL. It also gave an IC80 in TZM-bl assay [18] greater than 10 µg/mL, an IC50 in TZM-bl assay [19] of 0.165 µg/mL and an IC80 in TZM-bl assay [19] of 0.476 µg/mL. The IC50 in TZM-bl assay [20] was greater than 10 µg/mL, the IC80 in TZM-bl assay [20] was greater than 10 µg/mL and the IC50 in TZM-bl assay [21] was greater than 10 µg/mL. It also gave an IC80 in TZM-bl assay [21] greater than 10 µg/mL, an IC50 in TZM-bl assay [22] of 0.01 µg/mL and an IC80 in TZM-bl assay [22] of 0.036 µg/mL. For the same substance, the IC50 in TZM-bl assay [23] was 0.005 µg/mL, the IC80 in TZM-bl assay [23] was 0.015 µg/mL and the IC50 in TZM-bl assay [24] was greater than 10 µg/mL. For the same substance, the IC80 in TZM-bl assay [24] was greater than 10 µg/mL, the IC50 in TZM-bl assay [25] was greater than 10 µg/mL and the IC80 in TZM-bl assay [25] was greater than 10 µg/mL. It also gave an IC50 in TZM-bl assay [26] greater than 10 µg/mL, an IC80 in TZM-bl assay [26] greater than 10 µg/mL and an IC50 in TZM-bl assay [27] greater than 10 µg/mL. For the same substance, the IC80 in TZM-bl assay [27] was greater than 10 µg/mL, the IC50 in TZM-bl assay [28] was greater than 10 µg/mL and the IC80 in TZM-bl assay [28] was greater than 10 µg/mL. It also gave an IC50 in TZM-bl assay [29] greater than 10 µg/mL, an IC80 in TZM-bl assay [29] greater than 10 µg/mL and an IC50 in TZM-bl assay [30] of 0.011 µg/mL. The IC80 in TZM-bl assay [30] was 0.039 µg/mL, the IC50 in TZM-bl assay [31] was 0.07 µg/mL and the IC80 in TZM-bl assay [31] was 0.207 µg/mL. The IC50 in TZM-bl assay [32] was greater than 10 µg/mL, the IC80 in TZM-bl assay [32] was greater than 10 µg/mL and the IC50 in TZM-bl assay [33] was 0.003 µg/mL. It also gave an IC80 in TZM-bl assay [33] of 0.01 µg/mL, an IC50 in TZM-bl assay [34] of 0.014 µg/mL and an IC80 in TZM-bl assay [34] of 0.056 µg/mL. The IC50 in TZM-bl assay [35] was greater than 10 µg/mL, the IC80 in TZM-bl assay [35] was greater than 10 µg/mL and the IC50 in TZM-bl assay (JR-CSF D325A (HIV-1)) was 0.005 µg/mL. It also gave an IC50 in TZM-bl assay (JR-CSF G324A (HIV-1)) of 0.005 µg/mL, an IC50 in TZM-bl assay (JR-CSF N386A (HIV-1)) of 0.012 µg/mL and an IC50 in TZM-bl assay (JR-CSF N392A (HIV-1)) of 0.014 µg/mL.
